The results in this text go back to US20220348620A1 (WISTAR INSTITUTE OF ANATOMY AND BIOLOGY, published 2022).

The target in assay [1] is T1, recombinant full length human VDAC1 (hVDAC1) (human, UniProt P21796 1-283).
T1 construct: domain: full length; also called human recombinant VDAC; recombinant VDAC1
Nature of the assay: isothermal titration calorimetry, 100 µM peptide injected into 10 µM hVDAC1, 20 °C.
Description: (§1) Isothermal titration calorimetry (ITC). ITC experiments were performed using MlcroCal iTC200 (Malvern). Purified full-length hVDAC1 was buffer-exchanged into 25 mM HEPES-KOH (pH 7.5), 0.1 M KCl, 5% glycerol, 2% n-Octylglucoside, and 1 mM TCEP (ITC buffer). […] The ITC binding experiments were carried out at 20° C. Peptides at a concentration of 100 μM were added by 2.47 μl injections to 10 μM hVDAC1. The data collected was processed in MicroCal Origin software (Malvern).

Assay [2] concerns the target T1, recombinant full length human VDAC1 …. The assay is described as follows: isothermal titration calorimetry, peptide injected into human recombinant VDAC. On the technique in general: ITC needs no label: the signal is the heat of the interaction.
Description: as §1
The target in assay [3] is T2, hexokinase-I (HK-I), endogenous in PC3 cells (human, UniProt P19367 1-917).
T2 sequence (looked up): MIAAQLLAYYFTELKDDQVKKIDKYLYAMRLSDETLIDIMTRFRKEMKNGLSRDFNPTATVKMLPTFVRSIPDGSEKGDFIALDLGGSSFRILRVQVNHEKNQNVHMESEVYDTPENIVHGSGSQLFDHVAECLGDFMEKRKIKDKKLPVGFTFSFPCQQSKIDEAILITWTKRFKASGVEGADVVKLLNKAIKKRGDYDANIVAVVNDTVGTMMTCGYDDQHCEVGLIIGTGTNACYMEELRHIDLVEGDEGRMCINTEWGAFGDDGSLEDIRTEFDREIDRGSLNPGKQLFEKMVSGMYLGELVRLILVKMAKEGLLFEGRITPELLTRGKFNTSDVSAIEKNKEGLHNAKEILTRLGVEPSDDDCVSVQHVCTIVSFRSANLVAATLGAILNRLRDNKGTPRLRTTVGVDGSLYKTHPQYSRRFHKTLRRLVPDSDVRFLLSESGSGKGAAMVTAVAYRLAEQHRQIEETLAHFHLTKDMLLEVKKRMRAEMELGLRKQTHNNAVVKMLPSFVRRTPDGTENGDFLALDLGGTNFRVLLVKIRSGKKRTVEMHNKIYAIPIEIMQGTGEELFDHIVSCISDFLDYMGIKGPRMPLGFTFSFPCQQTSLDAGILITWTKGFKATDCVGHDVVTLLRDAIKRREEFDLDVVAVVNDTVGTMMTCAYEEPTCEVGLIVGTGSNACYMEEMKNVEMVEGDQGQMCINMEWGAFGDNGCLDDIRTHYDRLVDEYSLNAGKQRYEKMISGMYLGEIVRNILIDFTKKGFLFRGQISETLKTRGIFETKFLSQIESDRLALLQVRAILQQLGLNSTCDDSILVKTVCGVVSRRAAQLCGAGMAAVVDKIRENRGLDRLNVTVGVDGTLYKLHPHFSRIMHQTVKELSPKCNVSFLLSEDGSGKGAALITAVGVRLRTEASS
The assay is described as follows: co-immunoprecipitation with anti-Flag from PC3 cells, Western blot. On the technique in general: A western blot detects proteins with antibodies after separation by electrophoresis.

For assay [4], the target named is T3, VDAC1 (endogenous, in PC3 cell extracts) (human, UniProt P21796 2-283).
T3 construct: also called voltage-dependent anion channel-1
T3 sequence (P21796 2-283 limits assumed): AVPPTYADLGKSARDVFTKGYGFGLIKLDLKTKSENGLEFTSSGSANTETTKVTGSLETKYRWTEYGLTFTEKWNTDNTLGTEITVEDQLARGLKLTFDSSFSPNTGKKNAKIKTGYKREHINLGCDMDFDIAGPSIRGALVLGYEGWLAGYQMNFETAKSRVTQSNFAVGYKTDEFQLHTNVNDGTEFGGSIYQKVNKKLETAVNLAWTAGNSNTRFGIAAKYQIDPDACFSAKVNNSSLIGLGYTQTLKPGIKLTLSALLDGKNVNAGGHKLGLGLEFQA
The description is as above.

Assay [5] has as its target T2, hexokinase-I (HK-I), endogenous in PC3 …. The assay is described as follows: affinity chromatography of PC3 cell extracts on beads-coupled MFF peptide #8, Western blot of bound proteins.
Assay [6] has as its target T3, VDAC1 (endogenous, in PC3 cell extracts). The description is as above.
The target in assay [7] is T4, hexokinase-II (HK-II), endogenous in PC3 cells (human, UniProt P52789 1-917).
T4 sequence (looked up): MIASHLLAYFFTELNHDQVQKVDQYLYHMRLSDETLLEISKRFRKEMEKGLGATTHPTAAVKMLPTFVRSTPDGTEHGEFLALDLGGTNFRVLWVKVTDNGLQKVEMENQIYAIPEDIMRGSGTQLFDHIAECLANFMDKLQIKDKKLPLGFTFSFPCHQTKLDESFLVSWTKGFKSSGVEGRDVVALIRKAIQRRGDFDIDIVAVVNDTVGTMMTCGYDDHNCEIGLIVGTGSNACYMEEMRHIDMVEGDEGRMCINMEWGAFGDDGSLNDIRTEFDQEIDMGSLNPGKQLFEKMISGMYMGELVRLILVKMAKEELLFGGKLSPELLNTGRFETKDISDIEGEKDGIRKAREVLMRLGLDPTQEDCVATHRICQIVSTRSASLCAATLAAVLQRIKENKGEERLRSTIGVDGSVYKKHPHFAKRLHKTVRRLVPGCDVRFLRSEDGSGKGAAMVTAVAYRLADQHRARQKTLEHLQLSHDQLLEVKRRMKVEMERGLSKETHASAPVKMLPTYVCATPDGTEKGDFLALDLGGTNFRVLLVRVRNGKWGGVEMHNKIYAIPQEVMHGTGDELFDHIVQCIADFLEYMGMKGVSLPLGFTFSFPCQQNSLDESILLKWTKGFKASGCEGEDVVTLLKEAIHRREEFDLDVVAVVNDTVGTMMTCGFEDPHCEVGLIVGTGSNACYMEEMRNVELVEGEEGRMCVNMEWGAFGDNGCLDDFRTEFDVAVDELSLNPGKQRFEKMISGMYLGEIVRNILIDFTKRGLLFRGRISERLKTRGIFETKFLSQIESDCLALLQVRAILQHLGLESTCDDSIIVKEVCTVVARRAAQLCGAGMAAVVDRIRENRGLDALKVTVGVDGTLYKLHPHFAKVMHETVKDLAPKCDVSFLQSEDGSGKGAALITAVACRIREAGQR
The description is as above.

Assay [8] concerns the target Dynamin-Related Protein-1 (Drp1), endogenous in PC3 cells (human, UniProt O00429 1-736, limits assumed). Nature of the assay: co-immunoprecipitation with anti-Flag from PC3 cells, Western blot.
Assay [9] deals with T4, hexokinase-II (HK-II), endogenous in …. The assay is described as follows: co-immunoprecipitation with anti-Flag from transfected PC3 cells, Western blot and densitometry (AU).
The target of assay [10] is T1, recombinant full length human VDAC1 …. The assay is described as follows: isothermal titration calorimetry, scrambled peptide injected into human recombinant VDAC.
Description: as §1

Positions count from the first letter of the chain named. Numbers in names are those of the source.

The term Kd denotes a measure of binding affinity in units of concentration.

T1 sequence (P21796 whole entry): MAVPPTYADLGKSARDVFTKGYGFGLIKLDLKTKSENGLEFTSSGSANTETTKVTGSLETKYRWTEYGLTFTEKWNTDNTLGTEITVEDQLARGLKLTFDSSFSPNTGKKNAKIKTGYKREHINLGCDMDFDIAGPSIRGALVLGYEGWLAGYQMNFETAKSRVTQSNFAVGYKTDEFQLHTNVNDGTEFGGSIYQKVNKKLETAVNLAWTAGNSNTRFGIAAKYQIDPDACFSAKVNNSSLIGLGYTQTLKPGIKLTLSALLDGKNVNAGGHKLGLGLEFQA
Dynamin-Related Protein-1 (Drp1), endogenous in PC3 cells, sequence (O00429 whole entry): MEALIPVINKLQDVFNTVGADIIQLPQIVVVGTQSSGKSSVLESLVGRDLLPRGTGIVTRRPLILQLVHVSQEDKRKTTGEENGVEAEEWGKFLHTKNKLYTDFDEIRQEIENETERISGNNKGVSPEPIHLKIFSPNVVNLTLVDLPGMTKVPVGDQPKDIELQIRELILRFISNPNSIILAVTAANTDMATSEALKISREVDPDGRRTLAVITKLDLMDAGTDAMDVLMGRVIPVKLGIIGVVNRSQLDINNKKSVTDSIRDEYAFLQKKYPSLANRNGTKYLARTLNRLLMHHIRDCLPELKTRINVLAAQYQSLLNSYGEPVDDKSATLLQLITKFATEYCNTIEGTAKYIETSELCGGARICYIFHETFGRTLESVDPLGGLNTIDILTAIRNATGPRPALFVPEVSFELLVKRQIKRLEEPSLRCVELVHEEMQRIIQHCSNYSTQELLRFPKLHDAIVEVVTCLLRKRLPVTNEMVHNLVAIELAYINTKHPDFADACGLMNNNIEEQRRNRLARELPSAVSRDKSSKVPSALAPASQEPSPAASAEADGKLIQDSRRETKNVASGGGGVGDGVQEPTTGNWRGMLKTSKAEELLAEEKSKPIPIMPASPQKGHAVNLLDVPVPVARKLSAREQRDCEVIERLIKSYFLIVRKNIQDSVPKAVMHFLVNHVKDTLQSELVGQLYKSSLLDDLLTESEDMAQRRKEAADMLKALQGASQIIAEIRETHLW

B1: MFF peptide #8-11 (Ser223-Leu243 of MFF1), wild type (peptide)
peptide: SARGILSLIQSSTRRAYQQIL
notes: Plain synthetic peptide (not the cell-permeable form) as used in ITC; also called WT MFF peptide #8-11; MFF (L) peptide #8-11
Consider B1, for which the Kd in assay [1] was about 12 µM; in assay [2] it was 12 µM.

B2: Flag-MFF5 (other, human, UniProt Q9GZY8-5 1-238, looked up)
chain: MAEISRIQYEMEYTEGISQRMRVPEKLKVAPPNADLEQGFQEGVPNASVIMQVPERIVVAGNNEDVSFSRPADLDLIQSTPFKPLALKTPPRVLTLSERPLDFLDLERPPTTPQNEEIRAVGRLKRERSMSENAVRQNGQLVRNDSLPVLRGGSAAATSNPHHDNVRYGISNIDTTIEGTSDDLTVVDAASLRRQIIKLNRRLQLLEEENKERAKREMVMYSITVAFWLLNSWLWFRR
notes: also called Flag-MIFFS (misprint in legend); not shown: Flag tag
Take B2: the binding result in [3] and in assay [4] was “no binding” throughout.

As to DGANLSSARGILSLIQSSTRRAYQQILDVL (also called MFF #8) [MFF peptide #8 (Asp217-Leu246 of MFF1)], the binding result in [5], in assay [6] and in assay [7] was “binds” each time.

B3: Flag-MFF2 (other, human, UniProt Q9GZY8-2 1-291, looked up)
chain: MAEISRIQYEMEYTEGISQRMRVPEKLKVAPPNADLEQGFQEGVPNASVIMQVPERIVVAGNNEDVSFSRPADLDLIQSTPFKPLALKTPPRVLTLSERPLDFLDLERPPTTPQNEEIRAVGRLKRERSMSENAVRQNGQLVRNDSLVTPSPQQARVCPPHMLPEDGANLSSARGILSLIQSSTRRAYQQILDVLDENRRPVLRGGSAAATSNPHHDNVRYGISNIDTTIEGTSDDLTVVDAASLRRQIIKLNRRLQLLEEENKERAKREMVMYSITVAFWLLNSWLWFRR
notes: not shown: Flag tag
B3: in [8], the binding result is recorded as “no binding”.

B4: Flag-MFF1 Q241A (other, not shown: small tags and cut ends)
chain: MSKGTSSDTSLGRVSRAAFPSPTAAEMAEISRIQYEMEYTEGISQRMRVPEKLKVAPPNADLEQGFQEGVPNASVIMQVPERIVVAGNNEDVSFSRPADLDLIQSTPFKPLALKTPPRVLTLSERPLDFLDLERPPTTPQNEEIRAVGRLKRERSMSENAVRQNGQLVRNDSLWHRSDSAPRNKISRFQAPISAPEYTVTPSPQQARVCPPHMLPEDGANLSSARGILSLIQSSTRRAYQAILDVLDENRRPVLRGGSAAATSNPHHDNVRYGISNIDTTIEGTSDDLTVVDAASLRRQIIKLNRRLQLLEEENKERAKREMVMYSITVAFWLLNSWLWFRR
notes: also called mutant Flag-MFF Q241A
As for B4, in assay [9], the binding result is on record as “binds”.

B5: Flag-MFF1 R225D (other, not shown: small tags and cut ends)
chain: B4 chain with R225D, A241Q
notes: also called mutant Flag-MFF R225D
B5: the binding result in [9] is listed as “binds”.

B6: Flag-MFF1 R236D (other, not shown: small tags and cut ends)
chain: B4 chain with R236D, A241Q
notes: also called mutant Flag-MFF R236D
Regarding B6, the binding result in assay [9] is “binds”.

B7: scrambled variant of MFF peptide 8#11 (peptide)
peptide: SSQLRYLARSQRITIQLIAGS
notes: Control peptide in ITC; also called MFF scrambled peptide
Take B7: in assay [10], the binding result was “no binding (tested: molar ratio about 2)”.
